Assay results published in patent publication US20120027756A1 (IRM, published 2012).

B1: NV115-3B (Fab) (Fab, V domains shown)
VH: QVQLVQSGAEVKKPGASVKVSCKASGYTFTTYGISWLRQAPGQGLEWMGWVNTNTGNPRYAQGFTGRFVFSLDTSVSTAYLQISSLKAEDTAVYYCAREGFITTVVGAAGRFVYWGQGTLVTVSS
VL: DIQMTQSPSSLSASVGDRVTITCRASQDIHTRLAWYQQKPGQPPKLLIYWASTRASGVPDRFSGTGSGTDFTLTISSLQAEDVAVYYCQQYSTYPTFGQGTKLEIK
notes: the constant domains of the Fab are not
B2: mouse anti-hTSLPR monoclonal antibody clone 1D6.C9 (antibody, V domains shown)
VH: QIQLGQSGPELKKPGETVKISCKASGYTFTTYGMSWVKQAPGKGLQWMGWINTYSGVPRYADDFKGRFAFSLETSASTAYLQIYNLKNEDTATYFCTREGFITTVVGAAGRFVYWGQGTLVTVSA
VL: DIVMTQSHKFMSTSVGDRVSITCKASQDVGTAVAWYQQKPGQSPKLLIYWASTRHTGVPDRFTGSGSGTDFTLTLNNVQSEDLADYFCQQYSTYPTFGSGTKLELKR
notes: also called mAb 1D6.C9; mouse anti-hTSLPR antibody

Tests used:
Human TSLPR [1] = target: T1, Human TSLPR (human, UniProt Q9HC73 23-231, limits assumed); assay: Biacore surface plasmon resonance
T1 construct: also called hTSLPR; human thymic stromal lymphopoietin receptor
T1 sequence (looked up): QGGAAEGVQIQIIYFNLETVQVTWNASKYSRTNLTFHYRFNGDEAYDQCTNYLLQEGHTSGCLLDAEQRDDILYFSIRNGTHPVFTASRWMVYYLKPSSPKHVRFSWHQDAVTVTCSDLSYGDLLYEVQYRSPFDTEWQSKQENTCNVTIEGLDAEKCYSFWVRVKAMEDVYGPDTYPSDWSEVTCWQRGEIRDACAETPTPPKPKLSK

Human TSLPR [2] = target: T1, Human TSLPR; assay: ForteBio, solution binding kinetics
[3] = target: T2, Human TSLPR on the cell surface (Ba/F3/hTSLPR/hIL7Rα cells, Ba/F3/hTSLPR/hIL7Rα/Stat5-Luc cells, human … (human, UniProt Q9HC73 23-371)); assay: cell-based or functional assay
T2 sequence (looked up): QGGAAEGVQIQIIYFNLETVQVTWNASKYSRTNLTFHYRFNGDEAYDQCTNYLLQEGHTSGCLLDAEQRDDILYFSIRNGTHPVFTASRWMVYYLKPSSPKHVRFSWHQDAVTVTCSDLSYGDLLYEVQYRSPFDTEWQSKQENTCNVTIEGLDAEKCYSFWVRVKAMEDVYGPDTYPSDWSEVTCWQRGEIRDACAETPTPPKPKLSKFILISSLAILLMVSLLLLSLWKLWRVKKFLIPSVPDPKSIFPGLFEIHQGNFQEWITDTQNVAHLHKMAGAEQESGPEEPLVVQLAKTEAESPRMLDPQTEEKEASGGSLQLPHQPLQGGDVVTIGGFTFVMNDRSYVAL

[4] = target: T3, Human TSLPR fragment 67-174 (human, UniProt Q9HC73); assay: ELISA of antibody 1D6.C9 on human TSLPR fragments (OD650); hFc bars as control for the fragment
T3 construct: extracellular domain fragment; also called 67 (23) to 174 (58)
T3 receptor fragment (looked up): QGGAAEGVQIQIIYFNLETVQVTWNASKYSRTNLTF

[5] = target: T4, Human TSLPR fragment 67-336 (human, UniProt Q9HC73); assay: as above
T4 construct: extracellular domain fragment; also called 67 (23) to 336 (112)
T4 sequence (receptor fragment, looked up): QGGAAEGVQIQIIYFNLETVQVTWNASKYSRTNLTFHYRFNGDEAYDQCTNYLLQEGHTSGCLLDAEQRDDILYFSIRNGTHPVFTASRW

Row | Binder | Kd (Human TSLPR [1]) | Kd (Human TSLPR [2]) | IC50 [pM] Human TSLPR Prolif. [3] | IC50 [pM] Human TSLPR Prolif. (15% serum) [3] | IC50 [pM] Human TSLPR RGA [3] | IC50 [pM] Human TSLPR RGA (15% serum) [3] | binding result [4] | binding result [5]
1 | B1 | 0.101 nM | 0.051 nM | 210 pM | 200 pM | 270 pM | 950 pM |  | 
2 | B2 |  |  |  |  |  |  | no binding | no binding
